“Also recorded” adds a separate entry of the source.
What was measured:
[1] = test system: BBCEC monolayers; assay: Transcytosis across BBCEC monolayers (in vitro BBB model); format: cell-based, bovine; settings: for Effect on transcytosis of 125I-p97: competitor 5 micromolar (FIG. 10a, 10b)
Source text: FIG. 10 assesses the ability of several agents to interfere with p97 transyctosis. FIG. 10a, transcytosis of I125-P97 was compared in the presence of cold p97 (5 micromolar), Lf (5 micromolar), and Tf (5 micromolar). […] FIG. 10c, RAP, a known poly-peptide inhibitor of the LDL-Receptor family was applied to the cells (25 micrograms/ml).
FIG. 11 examines the accumulation and transcytosis of p97. FIG. 11a, of [^125I]-p97, [^125I]-BSA and [^125I]-holo-transferrin one hour after i.v. injection. The radioactivity in brain was compared between the three compounds. (n=3); FIG. 11b, Accumulation of p97 and transferrin into the mouse brain parenchyma. In situ brain perfusion was performed with human [^125I]-p97 or [^125I]-holo-transferrin at a final concentration of 10 nM via a catheter inserted in the right common carotid artery. The volume of distribution (VD) of [^125I]-proteins were obtained in the whole brain homogenate (white bars), in brain capillaries (solid bars) and in brain parenchyma (hatched bars) after isolation of the right hemisphere and capillary depletion. Results were obtained for p97 (n=10) and for holo-transferrin (n=6); FIG. 11c, Transcytosis of p97 across BBCEC monolayers. Transcytosis experiments were performed 37° C. (open circles) and 4° C. (closed circles) with BBCEC monolayers. [^125I]-p97 (1 mg/ml) was added to the upper side of the cell-covered filter. One representative experiment is shown (n=4); FIG. 11d, Preferential transport of p97 across the BBCEC monolayers. Apical-to-basal and basal-to-apical transport of [^125I]-p97 (25 nM) was measured for 2 hrs at 37° C. At the end of the experiment, [^125I]-p97 was assessed in the lower or upper chambers of each well by TCA precipitation (n=4).
FIG. 13 illustrates the transcytosis and accumulation of p97 and transferrin in BBCEC monolayers. FIG. 13a, Transcytosis experiments were performed at 37° C. (solid bars) or 4° C. (white bars). [^125I]-p97 or bovine [^125I]-holo-transferrin (1 mg/ml) was added to the upper side of the cell-covered filter. At the end of the experiment, radiolabelled proteins were measured in the lower chamber of each well by TCA precipitation (n=4). Controls were also performed at 37° C. with denatured [^125I]-p97 or bovine [^125I]-holo-transferrin boiled for 30 min (grey bars) (n=2); FIG. 13b, Biospecific interaction analysis was performed with native or boiled p97 for the indicated times. MAb L235 (5 μg) was immobilized on a sensor chip (SM5) using standard procedures incorporating NHS, EDC and ethanolamine. Native and boiled p97 (5 to 30 min) diluted at 1 mg/ml in Ringer/Hepes was cooled and injected into the BIAcore. The surface plasmon resonance response obtained for native p97 and boiled p97 was plotted (in relative units (RU)) as a function of time; FIG. 13c, The accumulation of both proteins into BBEC cells were also measured. Briefly, after incubation at 37° C. (solid bars) or 4° C. (white bars) with either [^125I]-protein, cells were washed four times with cold PBS. Accumulation of both denatured proteins (grey bars) was also measured at 37° C. Filters were then removed, and the radioactivity associated with the cells was quantified (n=3).
FIG. 14 illustrates the stability of p97 and integrity of the BBCEC monolayers following p97 transcytosis. FIG. 14a, Transcytosis experiments were performed at 37° C. and 4° C. by adding p97 (1 mg/ml) to the upper compartment. At the end of the experiment, 50 μl from each lower chamber was used for SDS-polyacrylamide gel electrophoresis. After electrophoresis, the gels were stained with Coomassie Blue. A standard curve was also made with known amounts of recombinant p97 (0-2 μg); FIG. 14b. The gels were dried and scanned to quantify the amount of intact p97 that crossed the BBCEC monolayers at 37° C. and 4° C. (n=3); FIG. 14c, Effect of p97 on sucrose permeability of BBCE cell monolayers co-cultured with astrocytes. […]

[2] = test system: astrocytes and astrocytoma cells; assay: Uptake of [125I]-p97 in rat astrocytes and astrocytoma cells; format: cell-based; settings: 50 nM p97, 2 h at 37° C. (FIG. 24)
Protocol: FIG. 24. Uptake of p97 in rat astrocytes and astrocytoma cells. Cells were grown in monolayer in six-multiwell microplates at 37° C. under 5% CO2. Uptake of [^125I]-p97 was measured at 37° C. for 2 h in astrocytes and astrocytomas. The incubation medium contained [^125I]-p97 and a final concentration of 50 nM p97 in Ringer/Hepes solution. After incubation, the cell monolayer was washed three times with cold Ringer/Hepes solution. Triton X-100 0.1% was added and the [^125I]-p97 uptake was assessed in the Triton X-100 soluble fraction by TCA precipitation. Results represent means±SD (n=3, Astro; n=6, CTX and RG2; n=9, C6).
Uptake of [^125I]-p97. Cells were grown in monolayer in six-multiwell microplates at 37° C. under 5% CO2. Uptake of [^125I]-p97 was measured at 37° C. for 2 h in astrocytes and astrocytomas. The incubation medium contained [^125I]-p97 and a final concentration of 50 nM P97 in Ringer/Hepes solution. The uptake of [^125I]-p97 was performed in presence or in absence of 5 μM cold-P97. After incubation, the cell monolayer was wash three times with cold Ringer/Hepes solution. Triton X-100 0.1% was added and the [^125I]-p97 uptake was assessed in the Triton X-100 soluble fraction by TCA precipitation.

[3] = test system: LRP/LRP1B; assay: Ligand binding and cross-linking, LRP/LRP1B immunodetection in U-87 cells; parameters: species or system human; settings: 4° C., cross-linked, non-reducing SDS-PAGE (FIG. 29)
Protocol: FIG. 29. […] U-87 cells were grown in monolayer in six-multiwell microplates at 37° C. under 5% CO2. The cell monolayer were incubated at 4° C. with p97 or RAP in Ringer/Hepes solution. After incubation, cell monolayer was washed 3 times with cold-Ringer/Hepes solution and proteins were cross-linked with 1 mM DSS. After, cells were lysed and equal quantities of protein (25 μg) were subjected to SDS-PAGE under non-reducing conditions and electroblotted onto PVDF membranes. […] (n=2).
Ligand-binding. Briefly, cells were incubated with [^125I]-p97 in Ringer/Hepes solution, in presence or in absence of 5 μM cold-P97 for 1 h at 4° C. After incubation, the cell monolayer was washed three times with cold Ringer/Hepes solution. After the ligand binding at 4° C., cell monolayer was washed three times with cold Ringer/Hepes solution and was incubated with DSS (Disuccinimidyl suberate) or Lomant's reagent DSP (Dithiobis(succinimidyl propionate)) from Pierce. After the cross-link, cells were lysed and proteins were separated by SDS-PAGE electrophoresis. Gels were fixed, dryed and exposed to Kodak films at −80° C. for about 3 weeks before developing. The cross-link was performed exactly as the manufacturer's protocol.

B1: p97: recombinant human melanotransferrin (p97), provided by Synapse Technologies (protein, UniProt P08582 20-709, looked up)
Melanotransferrin: GMEVRWCATSDPEQHKCGNMSEAFREAGIQPSLLCVRGTSADHCVQLIAAQEADAITLDGGAIYEAGKEHGLKPVVGEVYDQEVGTSYYAVAVVRRSSHVTIDTLKGVKSCHTGINRTVGWNVPVGYLVESGRLSVMGCDVLKAVSDYFGGSCVPGAGETSYSESLCRLCRGDSSGEGVCDKSPLERYYDYSGAFRCLAEGAGDVAFVKHSTVLENTDGKTLPSWGQALLSQDFELLCRDGSRADVTEWRQCHLARVPAHAVVVRADTDGGLIFRLLNEGQRLFSHEGSSFQMFSSEAYGQKDLLFKDSTSELVPIATQTYEAWLGHEYLHAMKGLLCDPNRLPPYLRWCVLSTPEIQKCGDMAVAFRRQRLKPEIQCVSAKSPQHCMERIQAEQVDAVTLSGEDIYTAGKTYGLVPAAGEHYAPEDSSNSYYVVAVVRRDSSHAFTLDELRGKRSCHAGFGSPAGWDVPVGALIQRGFIRPKDCDVLTAVSEFFNASCVPVNNPKNYPSSLCALCVGDEQGRNKCVGNSQERYYGYRGAFRCLVENAGDVAFVRHTTVFDNTNGHNSEPWAAELRSEDYELLCPNGARAEVSQFAACNLAQIPPHAVMVRPDTNIFTVYGLLDKAQDLFGDDHNKNGFKMFDSSNYHGQDLLFKDATVRAVPVGEKTTYRGWLGLDYVAALEGMSSQQC
- [125I]-p97 transport apical-to-basolateral relative to basolateral-to-apical ([1]; 25 nM, after 2 hrs at 37° C. (FIG. 11d)): about 3 fold
- Temperature dependence of p97 transcytosis ([1]; 37° C. versus 4° C., apical to basolateral): significantly higher at 37 °C than at 4 °C; also recorded: dramatic reduction
- Transport from the apical to the basolateral surface of ECs compared with transferrin ([1]; 37° C., 1 mg/ml (FIG. 13a)): much higher than for transferrin
- Saturability of p97 transcytosis ([1]; FIG. 9): saturable phenomenon
- Degradation of p97 after transcytosis ([1]; SDS-PAGE of lower compartment, 30-120 min (FIG. 14a)): no apparent degradation
- Effect of heat-denaturation on passage through BBCEC monolayers ([1]; boiled 30 min, 37° C. (FIG. 13a)): reduced the passage
- Effect on transcytosis of 125I-p97 [1]: successfully reduced
- Membrane bound p97 transcytosed ([1]; in 10 minutes (FIG. 20)): 80%
- Total amount of intact p97 after transendothelial transcytosis ([1]; p97 1 mg/ml, gel densitometry (FIG. 14b)): 35 μg/cm^2
- Specific uptake of p97 in astrocytoma cells over astrocytes [2]: greatly increased
- Association with LRP/LRP1B [3]: high molecular weight dissociable complex

B2: lactoferrin: lactoferrin (Lf), LRP ligand used as competitor (protein, UniProt P02788 20-710, looked up)
Lactotransferrin: GRRRSVQWCAVSQPEATKCFQWQRNMRKVRGPPVSCIKRDSPIQCIQAIAENRADAVTLDGGFIYEAGLAPYKLRPVAAEVYGTERQPRTHYYAVAVVKKGGSFQLNELQGLKSCHTGLRRTAGWNVPIGTLRPFLNWTGPPEPIEAAVARFFSASCVPGADKGQFPNLCRLCAGTGENKCAFSSQEPYFSYSGAFKCLRDGAGDVAFIRESTVFEDLSDEAERDEYELLCPDNTRKPVDKFKDCHLARVPSHAVVARSVNGKEDAIWNLLRQAQEKFGKDKSPKFQLFGSPSGQKDLLFKDSAIGFSRVPPRIDSGLYLGSGYFTAIQNLRKSEEEVAARRARVVWCAVGEQELRKCNQWSGLSEGSVTCSSASTTEDCIALVLKGEADAMSLDGGYVYTAGKCGLVPVLAENYKSQQSSDPDPNCVDRPVEGYLAVAVVRRSDTSLTWNSVKGKKSCHTAVDRTAGWNIPMGLLFNQTGSCKFDEYFSQSCAPGSDPRSNLCALCIGDEQGENKCVPNSNERYYGYTGAFRCLAENAGDVAFVKDVTVLQNTDGNNNEAWAKDLKLADFALLCLDGKRKPVTEARSCHLAMAPNHAVVSRMDKVERLKQVLLHQQAKFGRNGSDCPDKFCLFQSETKNLLFNDNTECLARLHGKTTYEKYLGPQYVAGITNLKKCSTSPLLEACEFLRK
- Effect on transcytosis of 125I-p97 [1]: only the cold p97 successfully reduced

Source: patent US7977317B2, “Compositions and methods for modulating blood-brain barrier transport” (Raptor Pharmaceutical Inc., priority 2001, dated 2011)
